Source: patent US20230083243A1 (VEGA THERAPEUTICS, published 2023)

B1: Antibody 1 (antibody, V domains shown)
VH: QVQLVQSGAEVKKPGSSVKVSCKVSGGTFSSYSISWVRQAPGQGLEWMGGIIPIFGTTNYAQKFQGRVTITADESTSTAYMDLSSLKSEDTAMYYCEGGRVGADFDYWGQGTLVTVSS
VL: SSDLTQGPAVSVALGQTVRITCQGDSLRNYYASWYQQKPGQAPVPVIYGKNDRPSGIPDRFSGSISGNTASLTITGAQAEDEAHYYCNSRDSSGNHVVFGGGTKLTVL
notes: Same variable regions as Antibody 13
B2: Antibody 4 (antibody, V domains shown)
VH: QVQLVESGGGVVQPGRSLRLSCAASGFTFSTYGFHWVRQPPGKGLEWVAVIYYDGINKYYADSVKGRFTISRDNSKNTLFLQMNSLRAEDTAVYYCAESDLDYWGQGTLVTVSS
VL: EIVLTQSPATLSLSPGERATLSCRASQSVSIYLAWYQQKPGQAPRLLIYDASNRATGIPARFSGSGSGTDFTLTISSLEPEDFAVYYCQQRSNWPLTFGPGTKVDIK
notes: Same variable regions as Antibody 16
B3: Antibody 3 (antibody, V domains shown)
VH: EVQLVESGGGLVQPGRSLRLSCAASGFTFDDYAMHWVRQAPGKGLEWVSGITWNSGNIGYADSVKGRFTISRDNAKNSLYLHMNSLRIEDTAFYYCAKGRAVSDTFDIWGQGTMVTVSS
VL: SYELNQPPSVSVSPGQTASITCSGDKLGDKYASWYQQKPGQSPVVAIYQNSKRPSGIPERFSASNSGNTATLTISGTQALDEADYYCQAWDSSTWVFGGGTKLTVL
notes: Same variable regions as Antibody 15
B4: Antibody 8 (antibody, V domains shown)
VH: QVQLQESGPGLVKPSETLSLTCAVSGYSISSGYYWGWIRQPPGKGLDWIGSIYYSGSTYYNPSLKSRVTISVDTSKNQISLKLSSVTAADTAVYYCATTYSDIVTGYYNDAFDIWGQGTMVTVSS
VL: EIVMTQSPATLSVSPGERATLSCRASQRINSNLAWYQQKPGQAPRLLIYGASTRATGIPARFSGSGSGTEFTLTISSLQSEDFAAYYCQQYDNWPLTFGGGTKVEIK
notes: Same variable regions as Antibody 20
B5: Antibody 7 (antibody, V domains shown)
VH: QLQLQESGPGLVKPSETLSLTCTVSGGSISSSSYYWGWIRQPPGKGLEWIGNIYYSGNTYYNPSLKSRVTISVDTSKNQFSLKLSSMTAADTAVYYCARCSGYGYSSGRSYFDYWGQETLVTVSS
VL: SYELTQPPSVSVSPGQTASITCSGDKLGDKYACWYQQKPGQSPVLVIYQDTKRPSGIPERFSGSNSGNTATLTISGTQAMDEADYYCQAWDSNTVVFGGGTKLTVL
notes: Same variable regions as Antibody 19
B6: Antibody 12 (antibody, V domains shown)
VH: QVQLQESGPGLVKPSETLSLTCGVSGGSISSTNWWSWVRQPPGKGLEWIGEIYQTGSTDYDPSLKSRVTISIDKSKNQFSLKLYSVTAADTAVYYCARRFGELDYWGQGTLVTVSS
VL: EIVMTQSPATLSVSPGERATLSCRASQSVTSNLAWYQQKPGQAPRLLIYDASTRATGIPARFSGSGSGTEFTLTISSLQSEDFAIYYCQQYNNWPTFGQGTRLEIK
notes: Same variable regions as Antibody 24
B7: Antibody 9 (antibody, V domains shown)
VH: QVQLVQSGAEVKKPGSSVKVSCKASGDTFSNHAINWVRQAPGQGLEWMGGYIPIFGTTNSAQKFRGRVTITADKSTNTAYMALSSLRSEDTAVYYCARGGLAGSHYKNYYYDGMDVWGQGTTVTVSS
VL: not shown
notes: Same variable regions as Antibody 21
B8: Antibody 2 (antibody, V domains shown)
VH: QVQLQESGPGLVKPSQTLSLTCTVSGGSITSDGYHWSWIRQYPGKGLDWIGYIYYTGNTYYNPSLKSRVTISVGTSQNQFSLKLISVTAADTAVYYCARRLSTGPYFDYWGQGTLVTVSS
VL: QSALTQPASVSGSPGQSITISCTGTSSDVGGYEFVSWYQHHPGKAPKLMIYDVSSRPSGVSNRFSGSKSGNTASLTISGLQAEDEADYYCSSYTRSSTVVFGGGARLTVL
notes: Same variable regions as Antibody 14
B9: Antibody 6 (antibody, V domains shown)
VH: QVQLQESGPGLVKPSETLSLTCTVSGGSISNYYWNWIRQPPGKGLEWIGYIYYIGITDYNPSLKSRVTISVDTSKNQFSLKVTSVTAADTAVYYCAALSGDHAFDIWGQGTLVTVSS
VL: not shown
notes: Same variable regions as Antibody 18
B10: Antibody 28 (antibody, V domains shown)
VH: QVQLQQSGTELVRPGTSVKMSCKAAGYTFTNHWIGWVKQRPGHGLEWIGDIYPGGGYTNYNEKFKGKASLTADTSSTTAYMQLSSLTSEDSAIYYCSRFGDQNWAWFAYWGQGTLVTVSA
VL: DIQMNQSPSSLSASLGDTITITCRASQNIHMWLSWYQQKPGNIPKLLIFKTSNLHTGVPSRFSGSGSGTDFTLTISSLQPEDIATYYCLQGQSYPFTFGGGTKLEIK
B11: Antibody 27 (antibody, V domains shown)
VH: QVQLQQSGPGLVKPSQTLSLTCAISGDSVSNNNAAWNWIRQSPSRGLEWLGGTYYRSKWYNDYAVSVKSRIIINPVTSKNQFSLQLNSVTPEDTAVYYCARGSSWYRFFDYWGQGTLVTVSS
VL: EIVLTQSPGTLSLSPGERATLSCRASQSVGSSYLAWYQQKPGQAPRLLISGASGRATGIPDRFSGSGSGTDFTLTISRLEPEDFTVYYCQQYGSSPYTFGQGTKLEIK
notes: Same variable regions as Antibody 33
B12: Antibody 43 (antibody, V domains shown)
VH: QVQLVQSGAEVKKPGASVKVSCKASGYTFTSYYIHWVRQAPGQGLEWMGVTSPSGRSTSFAQKFQGRVTMTRDTSTSAVYMDLDSLRSEDTAVYYCARGGVTIHLERRGYFDYWGQGTLVIVSS
VL: not shown
notes: Same variable regions as Antibody 44

Biological target: T1, human Protein S (human, UniProt P07225 42-676)
T1 construct: also called ProS; ProS1
T1 sequence: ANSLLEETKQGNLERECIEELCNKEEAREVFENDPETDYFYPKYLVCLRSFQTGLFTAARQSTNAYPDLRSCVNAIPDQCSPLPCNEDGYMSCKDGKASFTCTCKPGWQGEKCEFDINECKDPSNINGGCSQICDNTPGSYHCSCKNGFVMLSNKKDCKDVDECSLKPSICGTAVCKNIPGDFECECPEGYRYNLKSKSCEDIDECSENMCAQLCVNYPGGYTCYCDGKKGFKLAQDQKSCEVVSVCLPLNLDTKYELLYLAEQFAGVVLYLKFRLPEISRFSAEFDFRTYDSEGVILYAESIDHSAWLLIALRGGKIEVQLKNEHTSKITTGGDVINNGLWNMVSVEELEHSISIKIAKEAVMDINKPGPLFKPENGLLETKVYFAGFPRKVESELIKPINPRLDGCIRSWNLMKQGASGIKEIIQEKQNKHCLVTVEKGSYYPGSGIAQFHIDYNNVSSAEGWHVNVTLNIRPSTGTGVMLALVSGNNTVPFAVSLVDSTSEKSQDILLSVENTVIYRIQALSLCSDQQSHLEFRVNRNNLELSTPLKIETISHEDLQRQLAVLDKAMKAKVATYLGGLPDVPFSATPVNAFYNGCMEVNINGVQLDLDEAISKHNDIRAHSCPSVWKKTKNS
Assay: SPR Biacore X100; antibody captured by anti-human IgG (Fc); Protein S 2-128 nM; 5 mM CaCl2; 1:1 fit
Protocol: Binding characteristics of the Protein S antibodies were also determined. Binding interaction analysis was obtained by Surface Plasmon Resonance in a Biacore X100 instrument. The human anti-IgG (Fc) antibody was immobilized to the carboxymethylated dextran membrane on the sensor chip surface (CM5) via the free amine method for a contact time of 420 seconds. Human anti-IgG antibody at 25 μg/mL in 0.15 M NaCl was immobilized to 9,785 RU in 10 mM sodium acetate pH 5.0.
Dilution and running buffer were as follows: Hbs−EP+5 mM CaCl₂. Regeneration was obtained by 3 M MgCl₂. Binding constants (ka, kd, and KD) were determined using the Biacore X100 evaluation software, assuming a 1:1 interaction of Protein S and the tested monoclonal antibody under investigation.

Row | Binder | Kd [nM] | koff [s⁻¹] | kon [M⁻¹ s⁻¹]
1 | B1 | 1.33 | 0.00039 | 290000
2 | B2 | 4.13 | 0.00165 | 399000
3 | B3 | 2.24 | 0.000569 | 253000
4 | B4 | 6.25 | 0.000823 | 132000
5 | B5 | 20 | 0.005 | 252000
6 | B6 | 14.4 | 0.00947 | 657000
7 | B7 | 15.9 | 0.00336 | 212000
8 | B8 | 1.63 | 0.00056 | 346000
9 | B9 | 5.79 | 0.0016 | 280000

Biological target: T2, cynomolgus monkey Protein S (cynomolgus monkey)
T2 construct: also called cyno Protein S
Assay: BLI Octet; antibody on anti-human Fc probe; Protein S 7.81-500 nM; 4 mM CaCl2
Protocol: (§1) Binding characteristics of the Protein S antibodies were also further characterized using Octet. Using the Octet System (Sartorius), the binding of each antibody to both human and cynomolgus monkey (“cyno” in Table 10) Protein S was determined. The human Fc antibodies were immobilized onto anti-human Fc capture probes by placing the probes into 10 μg/ml antibody solution in 10 mg/ml bovine serum albumin, 20 mM Tris pH 7.0, 150 mM NaCl, and 4 mM calcium chloride. […] Next, the probes were placed into buffer and the dissociation rates were measured.

Row | Binder | Kd [nM] | koff [s⁻¹] | kon [M⁻¹ s⁻¹]
10 | B1 | < 0.001 | < 1e-07 | 139000
11 | B2 | 15.3 | 0.00308 | 201000
12 | B3 | < 0.001 | < 1e-07 | 127000
13 | B10 | 9.81 | 0.00106 | 109000
14 | B11 | 34.3 | 0.00233 | 67900
15 | B4 | 1.55 | 0.000133 | 85800
16 | B5 | 16.9 | 0.00232 | 137000
17 | B12 | 3.88 | 0.00104 | 268000
18 | B6 | 11.3 | 0.00291 | 258000
19 | B7 | 0.266 | 4.42e-05 | 166000
20 | B8 | < 0.001 | < 1e-07 | 154000
21 | B9 | 2.81 | 0.000394 | 140000

Biological target: T1, human Protein S
Assay: as above
Protocol: as §1

Row | Binder | Kd [nM] | koff [s⁻¹] | kon [M⁻¹ s⁻¹]
22 | B1 | < 0.001 | < 1e-07 | 169000
23 | B2 | 2.62 | 0.000708 | 271000
24 | B3 | 0.0542 | 8.86e-06 | 164000
25 | B10 | 6.78 | 0.00106 | 156000
26 | B11 | 0.574 | 0.000159 | 277000
27 | B4 | 0.514 | 6.7e-05 | 131000
28 | B5 | 8.18 | 0.00141 | 172000
29 | B12 | 1.99 | 0.000636 | 320000
30 | B6 | 7.49 | 0.00232 | 309000
31 | B7 | 0.533 | 0.000162 | 304000
32 | B8 | < 0.001 | < 1e-07 | 207000
33 | B9 | 1.47 | 0.000332 | 226000
